This is an account of results in US20120014941A1 (Hoffmann-La Roche, published 2012).

The target of assay [1] is T1, recombinant human Bv8 (PeproTech) (human, UniProt Q9HC23-2 28-108, biotinylated (Sulfo-NHS-LC-biotin) in the two competition ELISAs with coated antibody).
T1 construct: Bought protein; also called HuBv8; prokineticin-2
T1 sequence (looked up): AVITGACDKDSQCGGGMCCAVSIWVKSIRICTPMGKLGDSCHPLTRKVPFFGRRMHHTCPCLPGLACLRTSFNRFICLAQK
Description: competitive ELISA: antibody in serial dilution mixed with biotinylated human Bv8 (57 pM) and put on plate coated with mouse 2G9 IgG1 (m5, the competitor); streptavidin-HRP, OD 450/620; four-parameter fit. The method, then:
Maxisorp 384 well plates were coated with 1 μg/ml parent mouse 2G9 IgG1 antibody at 25 μl/well in 50 mM sodium carbonate buffer, pH 9.6, at 4° C. overnight. Plates were washed with phosphate buffered saline (PBS) containing 0.05% polysorbate, pH 7.4 and blocked with PBS containing 0.5% BSA, 10 ppm Proclin, pH 7.4, at 80 μL1/well. After one-hour incubation at room temperature, plates were washed. A mixture of serially diluted humanized 2G9 antibodies (0.11 pM-180 nM) in PBS containing 0.5% BSA, 0.05% polysorbate 20, pH 7.4 and biotinylated human Bv8 (final concentration 0.5 ng/ml or 57 pM) were added at 25 μL1/well. After two hour incubation, plates were washed and horseradish peroxidase conjugated streptavidin (GE Healthcare) was added. After a final 30 minute incubation, plates were washed and the substrate 3,3′,5,5′-tetramethyl benzidine (Kirkegaard & Perry Laboratories) was added. The reaction was stopped by adding 1 M phosphoric acid and absorbance was read at 450 nm on a Multiskan Ascent reader (Thermo Scientific, Hudson, N.H.). For data analysis, the titration curves were fitted using a four-parameter nonlinear regression curve-fitting program and the IC₅₀ concentrations were determined (KaleidaGraph, Synergy Software, Reading, Pa.).
On the technique in general: In an ELISA, binding on a coated surface is turned into a signal by an enzyme label.

In assay [2] the target is T1, recombinant human Bv8 (PeproTech). Description: SPR (BIAcore 3000, 25 C): human Bv8 coupled to CM5 chip, IgG injected; 1:1 Langmuir fit. The text has this:
(§1) For binding affinity determinations of anti-Bv8 antibodies (Fab or IgG), Surface Plasmon Resonance (SRP) measurement with a BIAcore™-3000 instrument was used. Briefly, CM5 biosensor chip was activated with EDC and NHS reagents according to the supplier's instructions, and human Bv8 (PeproTech) or Cynomologus Monkey (Genentech; PUR21590) was coupled to achieve approximately 150 response units (RU), then following by blocking un-reacted groups with 1M ethanolamine. For kinetics measurements, two-fold serial dilutions of anti-Bv8 Fabs (0.19 nM to 25 nM) or IgGs (0.019 nM to 10 nM) were injected in HBS-P buffer (0.01M HEPES pH 7.4, 0.15M NaCl, 0.005% surfactant P20) at 25° C. with a flow rate of 30 μl/min. Association rates (kₒₙ) and dissociation rates (koff) were calculated using a simple one-to-one Langmuir binding model (BIAcore Evaluation Software version 3.2). The equilibrium dissociation constant (Kd) was calculated as the ratio koff/kₒₙ.
(In general: Surface plasmon resonance follows binding to a sensor surface in real time, without labels.)

In assay [3] the target is Cynomologus Monkey Bv8 (Genentech; PUR21590) (cynomolgus monkey). Description: SPR (BIAcore 3000, 25 C): cynomolgus monkey Bv8 coupled to CM5 chip, IgG injected; 1:1 Langmuir fit.
Assay [4] addresses T1, recombinant human Bv8 (PeproTech). Description: SPR (BIAcore 3000, 25 C): human Bv8 coupled to CM5 chip, Fab injected; 1:1 Langmuir fit.
Description: as §1

Assay [5] addresses Cynomologus Monkey Bv8 (Genentech; PUR21590) (cynomolgus monkey). Description: SPR (BIAcore 3000, 25 C): cynomolgus monkey Bv8 coupled to CM5 chip, Fab injected; 1:1 Langmuir fit.
Assay [6] has as its target T1, recombinant human Bv8 (PeproTech). Description: phage competition ELISA: Fab-displaying phage preincubated with serially diluted soluble human Bv8 (the concentration on the axis), unbound phage captured on plate-coated human Bv8, anti-M13-HRP; bound phage in %. The method, then:
(§2) MAXISORP™ microtiter plates were coated with recombinant human Bv8 (PeproTech) at 2 μg/ml in PBS overnight and then blocked with PBST buffer (0.5% BSA and 0.05% Tween 20 in PBS) for an hour at room temperature (RT). Phage from culture supernatants were incubated with serially diluted human Bv8 in PBST buffer in a tissue-culture microtiter plate for an hour at RT, after which 80 μl of the mixture was transferred to the target-coated wells for 15 minutes to capture unbound phage. The plate was washed with PBT buffer (0.05% Tween 20 in PBS), and HRP-conjugated anti-M13 (Amersham Pharmacia Biotech) was added (1:5000 in PBST buffer) for 40 minutes. The plate was washed with PBT buffer and developed by adding tetramethylbenzidine substrate (Kirkegaard and Perry Laboratories, Gaithersburg, Md.). The absorbance at 450 nm was plotted as a function of target concentration in solution to determine phage IC₅₀.

The target is the same in assay [7]. Description: SPR (BIAcore 3000, 25 C): human Bv8 coupled to CM5 chip, Fab injected; 1:1 Langmuir fit; N=3.
Description: as §1

For assay [8] the target is unchanged. Description: phage competition ELISA: Fab-displaying phage preincubated with serially diluted soluble human Bv8 (the concentration on the axis), unbound phage captured on plate-coated human Bv8, anti-M13-HRP; bound phage in %. As for the experimental part: as §2
This is another data set of the same source.

Substitutions are numbered along the chain they refer to. In names and notes the source's numbering stands. Like-named read-outs stand apart in the source and are kept apart here.

B1: h2G9.K4G1.Polish IgG (antibody, V domains shown)
VH: EVQLVQSGAEVKKPGASVKVSCKASGYSFTDYDMHWVRQAPGQGLEWIGYISSYSGATTYNQKFKGRVTITVDKSTSTAYLELSSLRSEDTAVYYCARDSNYGEAYAMDYWGQGTLVTVSS
VL: DIVMTQSPDSLAVSLGERATINCKASQSVDYSGDSYMNWYQQKPGQPPKLLIYAASNLESGVPDRFSGSGSGTDFTLTISSLQAEDVAVYYCQQINEDPFTFGQGTKVEIK
notes: IgG; constant regions not described for the humanized antibodies; also called parental polished K4G1 molecule
Turning to B1, the IC50 (as a rule, the point on the concentration scale where inhibition reaches its midpoint) in assay [1] is 0.084 nM. Besides, in assay [2], the Kd (commonly the constant that tells how readily two partners part at equilibrium) stood at 0.02 nM; the koff – broadly, the rate constant with which the complex falls apart – was 1.2e-05 s⁻¹; the kon (usually the second-order rate constant of association) was found to be 528000 M⁻¹ s⁻¹. In assay [3], this molecule came in with a Kd of 0.03 nM, a koff of 1.5e-05 s⁻¹ and a kon of 454000 M⁻¹ s⁻¹.

B2: h2G9.K4G1 (antibody, V domains shown)
VH: B1 VH with S53C, S55N, S100G
VL: B1 VL with S32D
notes: also called h2G9.K4G1 anti-Bv8 antibody
As to B2, the IC50 in assay [1] worked out at 0.984 nM.

B3: h2G9.K4G1.v55 Fab (Fab, V domains shown)
VH: B1 VH
VL: DIVMTQSPDSLAVSLGERATINCKASQSLDYYHYSYMNWYQQKPGQPPKLLIYAASNRESGVPDRFSGSGSGTDFTLTISSLQAEDVAVYYCQQINEDPFTFGQGTKVEIKR
notes: Variable domains only; claims 8 and 9)
B3: the results for the equilibrium dissociation constant (Kd) in assay [4], in assay [5] and in assay [7] were 0.18 nM, 0.42 nM and 0.28 nM, respectively. Besides, the koff is 7.2e-05 s⁻¹ in assay [4], 0.000129 s⁻¹ in assay [5] and 0.000136 s⁻¹ in assay [7]. Also, the kon amounted to 396000 M⁻¹ s⁻¹ in assay [4], 310000 M⁻¹ s⁻¹ in assay [5] and 484000 M⁻¹ s⁻¹ in assay [7]. Further, the “IC50 (read off the curve)” value in assay [6] was approximately 0.06 nM.

B4: h2G9.K4G1.Polish Fab (Fab, V domains shown)
VH: B1 VH
VL: B1 VL
notes: also called polished K4G1
For the molecule B4, in assay [8], the “IC50 (read off the curve)” value is approximately 0.2 nM. Moreover, in assay [6], the “IC50 (read off the curve)” value was approximately 0.2 nM. Further, in assay [7], the Kd came out at 1.44 nM, the koff was determined as 0.000689 s⁻¹ and the kon is 475000 M⁻¹ s⁻¹.

B5: h2G9.K4G1 variant CDR-L1 G29S (Fab, V domains shown)
VH: B1 VH with S53C, S55N, S100G
VL: B1 VL with S32D, G33S
For the molecule B5, the “IC50 (read off the curve)” value in assay [6] is approximately 1 nM.

B6: h2G9.K4G1.v19 Fab (Fab, V domains shown)
VH: B1 VH with F29L, D31N, S52H, A57S, T59L
VL: B3 VL with L29V, Y32S, H33G, Y34D, R58L
notes: Variable domains only; claims 6 and 7)
As for B6, in assay [4], the Kd is 0.04 nM, the koff came to 1.6e-05 s⁻¹ and the kon was determined as 359000 M⁻¹ s⁻¹. For the same molecule, the “IC50 (read off the curve)” value in assay [8] is approximately 0.09 nM. Moreover, in assay [5], the Kd worked out at 0.1 nM, the koff came to 2.8e-05 s⁻¹ and the kon turned out to be 267000 M⁻¹ s⁻¹. In assay [7], the Kd came to 0.08 nM, the koff came out at 3.8e-05 s⁻¹ and the kon was 471000 M⁻¹ s⁻¹.
